Sequences and labels used below:
B1: LINE1-full (parent)
chain: UACGUAGGUGGUUUUCCCCUGAUAGUGCUAAGGGGGCCUGGAAGUUUGGACUGGGCAGAGCUCAACACAGCGUGGCAAAGUGGCUGUGGCUAGACUGCCUCUCUGGAUUCCUCGUCACUCAGCAGGGCAUCUCUGAGAGAAAUGCC

In this data set the parent is B1. As to the kind of experiment: self-cleavage, relative activity (ratio to wild type); higher = more cleavage; in vitro, sequencing; the parent is a self-cleaving ribozyme.
Consider A57C A77U, for which the self-cleavage worked out at 0.08.

G54C C61U: the self-cleavage was found to be 0.05.

Turning to C56U A77G, the self-cleavage was determined as 0.16.

In the case of G53U U108C, the self-cleavage worked out at 1.56.

As to A57G, the self-cleavage was determined as 0.88.

Consider A57U, for which the self-cleavage is 0.1.

A57C: the self-cleavage stood at 0.08.

For G54A G83A, the self-cleavage is 0.52.

In the case of A57U A59G, the self-cleavage was 0.05.

With G58U A142G, the self-cleavage was determined as 0.03.

For G54U A121G, the self-cleavage stood at 0.97.

Consider A57G G139U, for which the self-cleavage was determined as 0.48.

Turning to A57G G139A, the self-cleavage was found to be 0.75.

As to A57G G58A, the self-cleavage turned out to be 0.03.

Turning to A57G C99U, the self-cleavage was 0.13.

Take A57G C99A: the self-cleavage stood at 0.2.

Take A59G A67U: the self-cleavage was 0.06.

For the variant A57G U100A, the self-cleavage turned out to be 0.3.

In the case of C56U A117C, the self-cleavage is 0.5.

As to G53U U85A, the self-cleavage came to 0.11.

Take G54U A78G: the self-cleavage was 0.44.

For the variant A57G U109C, the self-cleavage amounted to 0.49.

On to G54A G105U, for which the self-cleavage was determined as 0.7.

Consider G58C A124U, for which the self-cleavage was determined as 0.03.

As to G55C A117C, the self-cleavage came to 0.42.

A57U A129G: the self-cleavage stood at 0.13.

G54C U81A: the self-cleavage is 0.4.

As to A59C A67G, the self-cleavage came out at 0.

Regarding C56A A141G, the self-cleavage came to 0.07.

With C56U U85A, the self-cleavage is 0.04.

For the variant G58A A64G, the self-cleavage was 0.03.

Consider A57C U119A, for which the self-cleavage stood at 0.06.

In the case of A57U C90U, the self-cleavage turned out to be 0.02.

As to A57U A140G, the self-cleavage is 0.11.

For A57U A140U, the self-cleavage stood at 0.2.

Turning to A57U C120A, the self-cleavage stood at 0.05.

Consider G55A A138G, for which the self-cleavage stood at 0.51.

In the case of A57G A94U, the self-cleavage was 0.19.

Turning to G55A U104C, the self-cleavage was determined as 1.02.

G54A G88A: the self-cleavage worked out at 0.08.

As for G54U U81A, the self-cleavage came out at 0.39.

With G54A G82A, the self-cleavage was 0.9.

With G54A U87C, the self-cleavage is 0.1.

G54A U87A: the self-cleavage was determined as 0.06.

For the variant G55A A140G, the self-cleavage turned out to be 0.17.

On to G55A A94G, for which the self-cleavage stood at 0.2.

Consider G58A C71U, for which the self-cleavage was found to be 0.03.

Regarding G58U U81C, the self-cleavage was 0.05.

For A57U A136C, the self-cleavage worked out at 0.1.

C56A U143A: the self-cleavage stood at 0.09.

With G58A A142G, the self-cleavage stood at 0.

On to A57G U130A, for which the self-cleavage was 1.27.

On to A57G U130C, for which the self-cleavage came to 1.3.

A57U C61U: the self-cleavage amounted to 0.03.

For G58A U109A, the self-cleavage came out at 0.04.

As for G55U U132C, the self-cleavage turned out to be 0.16.

For the variant A57G C66U, the self-cleavage was determined as 0.05.

Take C56U A136U: the self-cleavage was 0.13.

Regarding G54U G114U, the self-cleavage came out at 0.74.

Take G54C U143A: the self-cleavage amounted to 1.3.

Turning to C56U A141G, the self-cleavage amounted to 0.14.

On to G54C A117U, for which the self-cleavage is 1.23.

Regarding G55C A107U, the self-cleavage came out at 0.08.

Consider G55U A121G, for which the self-cleavage stood at 0.37.

For the variant A57G U73A, the self-cleavage is 0.37.

For A57G U85A, the self-cleavage stood at 0.13.

As to A57G U85C, the self-cleavage is 0.16.

As to A57G U85G, the self-cleavage was 0.23.

As for A57G A78G, the self-cleavage is 0.65.

As for G55A A57G, the self-cleavage stood at 0.15.

For A57C A136G, the self-cleavage was determined as 0.05.

As for A57U G144A, the self-cleavage came to 0.16.

For A57U A107U, the self-cleavage was found to be 0.02.

As to A57U A107G, the self-cleavage was 0.14.

With G55U A117G, the self-cleavage amounted to 0.3.

On to G55U A117U, for which the self-cleavage stood at 0.46.

In the case of G55A U81A, the self-cleavage worked out at 0.08.

For the variant G53U G60U, the self-cleavage was 0.03.

Turning to C56U A138U, the self-cleavage amounted to 0.1.

Turning to C56U A138G, the self-cleavage stood at 0.31.

A57U C66G: the self-cleavage was 0.05.

With A57G U87G, the self-cleavage is 0.14.

For A57G U87C, the self-cleavage worked out at 0.11.

For A57C A69U, the self-cleavage came out at 0.08.

Regarding A59C A117G, the self-cleavage turned out to be 2.7.

As for G54U U119C, the self-cleavage was determined as 1.34.

Turning to C56G A67G, the self-cleavage is 0.

For the variant G58A U119C, the self-cleavage was determined as 0.06.

Regarding G58U U100C, the self-cleavage worked out at 0.09.

As for G58U U100G, the self-cleavage came to 0.2.

In the case of G54U C90A, the self-cleavage was 0.06.

Consider C56U C71U, for which the self-cleavage amounted to 0.07.

Regarding A59C U102C, the self-cleavage was found to be 2.07.

Turning to A59C U102A, the self-cleavage worked out at 1.1.

As to G54A U115A, the self-cleavage was 0.64.

In the case of G54A U132C, the self-cleavage was found to be 0.53.

As to G53U U115C, the self-cleavage is 1.91.

Regarding G55C A141G, the self-cleavage worked out at 0.55.

As to A57U G58U, the self-cleavage stood at 0.04.

For G55C U115C, the self-cleavage came to 0.26.

Regarding A57U C110A, the self-cleavage was determined as 0.19.

Regarding A57U C110U, the self-cleavage was determined as 0.05.

In the case of A57U A141G, the self-cleavage worked out at 0.11.

As to A57C U104A, the self-cleavage is 0.18.

As to A57G U134G, the self-cleavage is 0.78.

For A57G U134A, the self-cleavage stood at 0.62.

A57G U134C: the self-cleavage was found to be 0.93.

A59C U73A: the self-cleavage stood at 1.45.

In the case of G53U G70C, the self-cleavage worked out at 0.14.

For A57G G83C, the self-cleavage worked out at 0.17.

For C56U A129G, the self-cleavage is 0.22.

As to G58U A136G, the self-cleavage turned out to be 0.01.

For G54A A67G, the self-cleavage turned out to be 0.12.

For the variant A57U C84A, the self-cleavage turned out to be 0.21.

With A57U U143C, the self-cleavage stood at 0.14.

Turning to G55A C95U, the self-cleavage came to 0.11.

As to A57U A94C, the self-cleavage was found to be 0.1.

Turning to G54A U109A, the self-cleavage worked out at 0.35.

A57U U100C: the self-cleavage was determined as 0.19.

As to A57G C101U, the self-cleavage is 1.13.

C56U U100C: the self-cleavage was 0.44.

Turning to A59C U134A, the self-cleavage is 1.46.

In the case of A57G C63U, the self-cleavage turned out to be 0.17.

G55U G144A: the self-cleavage came out at 0.43.

For the variant C56U G86A, the self-cleavage is 0.04.

Turning to G54A U119C, the self-cleavage worked out at 1.35.

As for A57U A138U, the self-cleavage was 0.12.

On to A57G U91C, for which the self-cleavage came to 0.4.

For the variant A57G U91A, the self-cleavage is 0.34.

On to G58A U62C, for which the self-cleavage is 0.08.

A57G U104C: the self-cleavage turned out to be 1.11.

On to G58A A94G, for which the self-cleavage was 0.

Consider A57C U130A, for which the self-cleavage was found to be 0.03.

Take G53U U143C: the self-cleavage turned out to be 1.14.

Consider C56U A142U, for which the self-cleavage is 0.23.

Consider G54U U62A, for which the self-cleavage is 0.02.

Regarding A57G U96G, the self-cleavage was 0.

As to C56U C111U, the self-cleavage worked out at 0.19.

On to A57G A138G, for which the self-cleavage turned out to be 1.12.

As for A57U U134A, the self-cleavage worked out at 0.1.

Consider A57U U85A, for which the self-cleavage came to 0.05.

For A57U U85C, the self-cleavage amounted to 0.06.

Turning to G58U A78G, the self-cleavage amounted to 0.03.

For A57G C113U, the self-cleavage came out at 0.29.

As to G55A U134C, the self-cleavage was found to be 0.23.

Turning to G54U A92G, the self-cleavage was 0.08.

Turning to A57G U112C, the self-cleavage is 0.68.

Turning to A57G G106A, the self-cleavage worked out at 1.04.

As to G53U C99U, the self-cleavage came to 0.13.

With C56G U91C, the self-cleavage turned out to be 0.05.

Regarding A59G A92C, the self-cleavage came to 0.14.

As to A59G A92U, the self-cleavage turned out to be 0.1.

On to A57G A136U, for which the self-cleavage was determined as 0.95.

Take G58A U81C: the self-cleavage came to 0.05.

Turning to A57G A65U, the self-cleavage was found to be 0.15.

For the variant A57G A65G, the self-cleavage was determined as 0.1.

Take G55A A124U: the self-cleavage was 0.19.

A59G A69U: the self-cleavage came out at 0.06.

Take A57C U132G: the self-cleavage was determined as 0.

A57C U132A: the self-cleavage was 0.

Turning to A57G G105A, the self-cleavage was 0.48.

For A57U U73A, the self-cleavage was 0.06.

Turning to A57U U73C, the self-cleavage is 0.1.

As for G58A G144A, the self-cleavage was found to be 0.04.

In the case of G54A A136U, the self-cleavage came out at 0.67.

In the case of G54A A136G, the self-cleavage was 0.62.

Take C56U A59U: the self-cleavage amounted to 0.11.

(Values after the RNAGym collection of RNA variant scans (doi:10.7554/elife.90254).)
